Data taken from PMC9200798.
Blank lines part the entries; values can stand above or below the substance they belong to.

Key:
P45520 = test: microfluidics-coupled TIRF microscopy of single filaments; barbed end depolymerization of ADP-Pi filaments, F-buffer with KCl replaced by 40 mM K2HPO4 and 10 mM KH2PO4; settings: other: microfluidics-coupled TIRF microscopy of single filaments
[1] = target: Leishmania major actin (Leishmania major) (UniProt P45520); test: microfluidics-coupled TIRF microscopy of single filaments; pointed end depolymerization: pre-polymerized ADP-F-actin injected over 10 nM biotin-gelsolin held on neutravidin, F-buffer with 0.4 mM CaCl2, then F-buffer
[2] = target: Leishmania major actin (Leishmania major) (UniProt P45520); test: microfluidics-coupled TIRF microscopy of single filaments; barbed end polymerization from surface-anchored spectrin-actin seeds, G-actin with equimolar profilin in F-buffer (5 mM Tris-HCl pH 7.4, 50 mM KCl, 1 mM MgCl2); segmented, mixed or ATP-ATTO-488 filaments
[3] = target: Leishmania major actin (Leishmania major) (UniProt P45520)
[4] = target: Leishmania major actin (Leishmania major) (UniProt P45520); remark: listed apart in the source
[5] = target: rabbit skeletal muscle α-actin (rabbit (Oryctolagus cuniculus)) (UniProt P68135)

Substance: Leishmania major actin
- barbed end depolymerization rate, ADP-Pi-actin (P45520): ~6 subunits/s

- pointed end depolymerization rate, ADP-actin [1]: 3.5 subunits/s
- barbed end polymerization rate constant (with equimolar LmProfilin) (subunits/s/μM) [2]: 6
Substance: Leishmania major actin (from UniProt P45520 2-376) (natural protein)

- global fragmentation rate of LmActin filaments by LmCofilin against RbActin filaments by mammalian cofilin-1, microfluidics-coupled TIRF microscopy [3]: 100 fold
Substance: Leishmania major cofilin (natural protein)

Substance: Leishmania major twinfilin (natural protein)
- barbed end depolymerization rate of ADP-LmActin filaments without actin monomers, with LmTwf (0.1 and 1 μM) against buffer only [4]: 3 subunits/s
- barbed end polymerization rate with 1 μM LmActin, 1 μM LmProfilin and 0–4 μM LmTwf; net depolymerization above 0.2 μM LmTwf [4]: 8 subunits/s
- depolymerization rate of ADP-RbActin filaments with LmTwf [5]: 0.5 subunits/s
